Measured values reported in article PMC11277083, “A Natural Bioactive Peptide from Pinctada fucata Pearls Can Be Used as a Potential Inhibitor of the Interaction between SARS-CoV-2 and ACE2 against COVID-19” (International Journal of Molecular Sciences, 2024).

Target: recombinant ACE2 protein (coated plate of the RayBio COVID-19 Spike ACE2 binding assay kit II) (UniProt P0DTC2)
Assay: ELISA; […] ([…], in PBS), 2 h at room temperature; […]

Substance: KKCH peptide
- IC50: 413 µM
